Laboratory results as given in publication PMC1450327, “Crystal Structure of the HSV-1 Fc Receptor Bound to Fc Reveals a Mechanism for Antibody Bipolar Bridging” (PLoS Biology, 2006).

Molecular target: T1, wild-type Fc (wtFc), recombinant Fc fragment of human IgG1 (human)
T1 construct: human IgG1 heavy chain constant region, Fc fragment, residues 223-447; also called IgG Fc
Experiment: SPR; BIAcore 2000; wtFc amine-coupled to a CM5 chip (440 RU); CgE injected, three-fold dilutions from 30 μM to 5 nM; pH 8 (50 mM HEPES pH 8.0, 150 mM NaCl, 3 mM EDTA, 0.005% P-20); equilibrium response fitted to a single-site model
Details: both partners purified

B1: C-terminal domain of the gE ectodomain (CgE), HSV-1 gE residues 213-390 (domain or fragment)
chain: APEVSHVRGVTVRMETPEAILFSPGETFSTNVSIHAIAHDDQTYSMDVVWLRFDVPTSCAEMRIYESCLYHPQLPECLSPADAPCAASTWTSRLAVRSYAGCSRTNPPPRCSAEAHMEPVPGLAWQAASVNLEFRDASPQHSGLYLCVVYVNDHIHAWGHITISTAAQYRNAVVEQPL
modifications: secreted from High 5 insect cells; disulfides Cys271-Cys297, Cys280-Cys289 and Cys314-Cys323 (gE numbering = entity position + 211); C-terminal Factor Xa site and 6xHis left out
Which Kd does the source give for B1 here?
The Kd was about 7 µM.
